Data reported in patent EP0331471A1, “High molecular weight prodrug derivatives of antiinflammatory drugs” (Larsen, Claus Selch, priority 1988, dated 1989).
Where two headings read alike, the source gives them in different places.

Tests used:
[1] = pigs, from a previous study (8), cited from earlier work
[2] = Hydrolysis (release kinetics) of dextran ester prodrugs in aqueous buffer solution; type: physicochemical; conditions: for t(50%) at pH 7.40 and 37°C: 0.05 M phosphate buffer pH 7.40, 37°C; for t(10%) / Arrhenius equation: pH 4.48; for t(10%): time for 10% degradation, calculated from Arrhenius equations; for Ea: hydrolysis at pH 4.48, from slopes of Arrhenius type plots; for Arrhenius equation: kobs in hours⁻¹, T in degrees Kelvin; for kobs: ionic strength 0.5
Protocol: Release kinetics of the parent drug compounds from the corresponding dextran prodrugs of this invention was carried out in aqueous buffer solution over the pH range 4.5 - 10.0 at 37°C (and in order to determine the activation energies, at pH 4.5, from Arrhenius type plots at 50, 60, 65 and 70°C). […] The 1. order rate constants were derived from the slope of linear plots of log(B∞ -Bt) versus time and for the slow reactions by employing the initial rate method (e.g. (dBt/dt)i = kobsAo), where B∞ and Bt refer to the concentrations of regenerated parent drug at infinity and time t, respectively. (dBt/dt)i repre­sents the initial rate of parent drug formation, whereas kobs and Ao are the pseudo-first-order rate constant and the initial dextran prodrug concentration, respectively. For the fast reactions the initial concentration of the conjugates was in the range 5 - 25 mg/10 ml and for the slow reactions in the range 50 - 250 mg/10 ml. At various times an aliquot of the solutions was withdrawn and analyzed by HPLC for liberated free drug and in some cases for intact dextran prodrug.
A HPLC method was used for the determination of the generated free NSAIDs (the HPLC procedure was further used for determination of the degree of substitution of the polysaccharide prodrugs). […] The flow rate was 1.0 ml/min and the column effluent was monitored at 266 nm. […] Quantitation of the compounds was done by measurements of peak heights in relation to those of standards chromatographed under identical conditions.

[3] = Water solubility of the conjugates (25°C)

For `COc1ccc2cc([C@H](C)C(=O)O)ccc2c1` [NAPROXEN, (+)-2-(6-methoxy-2-napthyl)propionic acid], the β ([1]; i.v., 3.6 mg naproxen equivalents) is listed as 0.048 h⁻¹ and the β ([1]; naproxen in plasma, p.o.) is listed as 0.049 h⁻¹.

For “O-[2-(3-Benzoylphenyl)propionyl]-dextran T-10 [Example 51]”, the “t(50%) at pH 7.40 and 37°C” value [2] was 93 hours and the water-solubility [3] was > 20 % w/v.

For “O-[2-(3-Benzoylphenyl)propionyl]-dextran T-500 [Example 52]”, the “t(50%) at pH 7.40 and 37°C” value [2] was 91 hours and the water-solubility [3] was > 20 % w/v.

For “O-[2-(4-Isobutylphenyl)propionyl]-dextran T-10 [Example 54]”, the “t(50%) at pH 7.40 and 37°C” value [2] was 140 hours and the water-solubility [3] was > 20 % w/v.

With “O-[2-(4-Isobutylphenyl)propionyl]-dextran T-70 [Example 53]” the “t(50%) at pH 7.40 and 37°C” value [2] was 144 hours, the “t(10%)” value ([2]; 5°C) was 31.5 years and the “t(10%)” value ([2]; 25°C) was 1.68 years. The Ea [2] was 101.0 kJ/mol and the Arrhenius equation [2] was 1n kobs =28.9 - 12,140/T (n = 5, r = 0.97).

In the case of “O-[2-(4-Isobutylphenyl)propionyl]-dextran T-500 [Example 55]”, the “t(50%) at pH 7.40 and 37°C” value [2] is reported as 141 hours and the water-solubility [3] is reported as > 20 % w/v.

For “O-[3-(11β,17-dihydroxy-6α-methylpregna-1,4-diene-3,20-dione-21-oxycarbonyl)propionyl]-dextran T-40 [Example 47]”, the water-solubility [3] was > 20 % w/v.

For “O-[3-(11β,17-dihydroxy-6α-methylpregna-1,4-diene-3,20-dione-21-oxycarbonyl)propionyl]-dextran T-70 [Example 46]”, the water-solubility [3] was > 20 % w/v.

With “O-[3-(11β,17-dihydroxy-6α-methylpregna-1,4-diene-3,20-dione-21-oxycarbonyl)propionyl]-dextran T-500 [Example 48]” the water-solubility [3] was > 20 % w/v.

For “O-[3-(11β,17-dihydroxy-pregn-4-ene-3,20-dione-21-oxycarbonyl)propionyl]-dextran T-70 [Example 49]”, the water-solubility [3] was > 20 % w/v.

In the case of “O-[[2-(2,6-dichloroanilino)phenyl]acetyl]-dextran T-10 [Example 60]”, the water-solubility [3] is reported as > 20 % w/v.

In the case of “O-[[2-(2,6-dichloroanilino)phenyl]acetyl]-dextran T-70 [Example 59]”, the “t(10%)” value ([2]; 5°C) is reported as 21.3 years, the “t(10%)” value ([2]; 25°C) is reported as 0.65 years and the Ea [2] is reported as 120.2 kJ/mol. For the same compound, the Arrhenius equation [2] was 1n kobs = 37.6 - 14,450/T (n = 5, r = 0.99), the kobs ([2]; pH 9.54, 37°C) was 3.01 h⁻¹ and the water-solubility [3] was > 20 % w/v.

With “O-[[2-(2,6-dichloroanilino)phenyl]acetyl]-dextran T-500 [Example 61]” the water-solubility [3] was > 20 % w/v.

With “O-[±)-2-(3-phenoxyphenol)propionyl]-dextran T-10 [Example 57]” the “t(50%) at pH 7.40 and 37°C” value [2] was 128 hours and the water-solubility [3] was > 20 % w/v.

In the case of “O-[±)-2-(3-phenoxyphenol)propionyl]-dextran T-70 [Example 56]”, the “t(50%) at pH 7.40 and 37°C” value [2] is reported as 130 hours, the “t(10%)” value ([2]; 5°C) is reported as 59.7 years and the “t(10%)” value ([2]; 25°C) is reported as 2.72 years. The Ea [2] was 106.3 kJ/mol, the Arrhenius equation [2] was 1n kobs = 30.6 - 12,790/T (n = 5, r = 0.99) and the kobs ([2]; pH 10.00, 37°C) was 1.67 h⁻¹. For the same compound, the water-solubility [3] was > 20 % w/v.

With “O-[±)-2-(3-phenoxyphenol)propionyl]-dextran T-500 [Example 58]” the “t(50%) at pH 7.40 and 37°C” value [2] was 131 hours and the water-solubility [3] was > 20 % w/v.
